B1: eGFP-53BP1 (wild-type TP53-binding protein 1 tagged with enhanced green fluorescent protein) [not stated] / itself (parent)
chain: MDPTGSQLDSDFSQQDTPCLIIEDSQPESQVLEDDSGSHFSMLSRHLPNLQTHKENPVLDVVSNPEQTAGEERGDGNSGFNEHLKENKVADPVDSSNLDTCGSISQVIEQLPQPNRTSSVLGMSVESAPAVEEEKGEELEQKEKEKEEDTSGNTTHSLGAEDTASSQLGFGVLELSQSQDVEENTVPYEVDKEQLQSVTTNSGYTRLSDVDANTAIKHEEQSNEDIPIAEQSSKDIPVTAQPSKDVHVVKEQNPPPARSEDMPFSPKASVAAMEAKEQLSAQELMESGLQIQKSPEPEVLSTQEDLFDQSNKTVSSDGCSTPSREEGGCSLASTPATTLHLLQLSGQRSLVQDSLSTNSSDLVAPSPDAFRSTPFIVPSSPTEQEGRQDKPMDTSVLSEEGGEPFQKKLQSGEPVELENPPLLPESTVSPQASTPISQSTPVFPPGSLPIPSQPQFSHDIFIPSPSLEEQSNDGKKDGDMHSSSLTVECSKTSEIEPKNSPEDLGLSLTGDSCKLMLSTSEYSQSPKMESLSSHRIDEDGENTQIEDTEPMSPVLNSKFVPAENDSILMNPAQDGEVQLSQNDDKTKGDDTDTRDDISILATGCKGREETVAEDVCIDLTCDSGSQAVPSPATRSEALSSVLDQEEAMEIKEHHPEEGSSGSEVEEIPETPCESQGEELKEENMESVPLHLSLTETQSQGLCLQKEMPKKECSEAMEVETSVISIDSPQKLAILDQELEHKEQEAWEEATSEDSSVVIVDVKEPSPRVDVSCEPLEGVEKCSDSQSWEDIAPEIEPCAENRLDTKEEKSVEYEGDLKSGTAETEPVEQDSSQPSLPLVRADDPLRLDQELQQPQTQEKTSNSLTEDSKMANAKQLSSDAEAQKLGKPSAHASQSFCESSSETPFHFTLPKEGDIIPPLTGATPPLIGHLKLEPKRHSTPIGISNYPESTIATSDVMSESMVETHDPILGSGKGDSGAAPDVDDKLCLRMKLVSPETEASEESLQFNLEKPATGERKNGSTAVAESVASPQKTMSVLSCICEARQENEARSEDPPTTPIRGNLLHFPSSQGEEEKEKLEGDHTIRQSQQPMKPISPVKDPVSPASQKMVIQGPSSPQGEAMVTDVLEDQKEGRSTNKENPSKALIERPSQNNIGIQTMECSLRVPETVSAATQTIKNVCEQGTSTVDQNFGKQDATVQTERGSGEKPVSAPGDDTESLHSQGEEEFDMPQPPHGHVLHRHMRTIREVRTLVTRVITDVYYVDGTEVERKVTEETEEPIVECQECETEVSPSQTGGSSGDLGDISSFSSKASSLHRTSSGTSLSAMHSSGSSGKGAGPLRGKTSGTEPADFALPSSRGGPGKLSPRKGVSQTGTPVCEEDGDAGLGIRQGGKAPVTPRGRGRRGRPPSRTTGTRETAVPGPLGIEDISPNLSPDDKSFSRVVPRVPDSTRRTDVGAGALRRSDSPEIPFQAAAGPSDGLDASSPGNSFVGLRVVAKWSSNGYFYSGKITRDVGAGKYKLLFDDGYECDVLGKDILLCDPIPLDTEVTALSEDEYFSAGVVKGHRKESGELYYSIEKEGQRKWYKRMAVILSLEQGNRLREQYGLGPYEAVTPLTKAADISLDNLVEGKRKRRSNVSSPATPTASSSSSTTPTRKITESPRASMGVLSGKRKLITSEEERSPAKRGRKSATVKPGAVGAGEFVSPCESGDNTGEPSALEEQRGPLPLNKTLFLGYAFLLTMATTSDKLASRSKLPDGPTGSSEEEEEFLEIPPFNKQYTESQLRAGAGYILEDFNEAQCNTAYQCLLIADQHCRTRKYFLCLASGIPCVSHVWVHDSCHANQLQNYRNYLLPAGYSLEEQRILDWQPRENPFQNLKVLLVSDQQQNFLELWSEILMTGGAASVKQHHSSAHNKDIALGVFDVVVTDPSCPASVLKCAEALQLPVVSQEWVIQCLIVGERIGFKQHPKYKHDYVSH

Variants of: B1
Test: Homo-FRET (FAIM, fluorescence anisotropy imaging) in live DIvA cells
Settings: with itself; live DIvA cell nuclei, N = 5 cells, two biological replicates; value is the box median; read off a plot

Variant	screen value
chain 1 Y1258A Y1259A	0.01 delta r

Source: publication PMC7666136
